The text below walks through data of the RNAGym collection of RNA variant scans (doi:10.7554/elife.80360).

The chains are these.
B1: CPEB3 Ribozyme (parent)
chain: GGGGGCCACAGCAGAAGCGUUCACGUCGCGGCCCCUGUCAGAUUCUGGUGAAUCUGCGAAUUCUGCUGU

The variants in this series derive from B1. In words: self-cleavage, relative activity (ratio to wild type); higher = more cleavage; co-transcriptional.
With G14C A59C, the self-cleavage turned out to be 0.262.
Turning to G14C A59U, the self-cleavage worked out at 0.263.
Regarding G14C U43G, the self-cleavage came to 0.246.
As to G14C A60G, the self-cleavage worked out at 0.265.
Regarding G14C U67A, the self-cleavage stood at 0.468.
Then G14C U67G, with 0.549; and G14C U67C, with 0.443.
The result for G14C C34A reads 0.406; that for G14C C34G, 0.236.
For the variant G14A G68C, the self-cleavage came out at 0.756.
The result for G14A U49C reads 0.646; that for G14C U44G, 0.39; that for G14C U44A, 0.392.
As to G14A U62A, the self-cleavage was found to be 0.554.
G14A U62G: the self-cleavage was found to be 0.605.
As to G14A U62C, the self-cleavage is 0.338.
Consider G14A U55G, for which the self-cleavage turned out to be 0.172.
For the variant G14A U55C, the self-cleavage was 0.281.
For the variant G14U A51C, the self-cleavage is 0.61.
In the case of G14U A51G, the self-cleavage was determined as 0.842.
On to G14C G37A, for which the self-cleavage came out at 0.151.
Then G14C G37U, with 0.183.
For G14C G37C, the self-cleavage amounted to 0.127.
G14C C57U: the self-cleavage was 0.28.
As for G14C C57A, the self-cleavage was 0.325.
Regarding G14U A15G, the self-cleavage was 0.843.
Consider G14A U53C, for which the self-cleavage was 0.273.
G14C G58A: the self-cleavage came out at 0.505.
Regarding G14C A23U, the self-cleavage worked out at 0.761.
The result for G14C A23C reads 0.555; that for G14C C66A, 0.244.
Regarding G14C C66U, the self-cleavage was 0.358.
As for G14C G48C, the self-cleavage came to 0.677.
Consider G14C G48A, for which the self-cleavage worked out at 0.703.
The result for G14A U67C reads 0.583; that for G14A U67G, 0.682; that for G14A U67A, 0.635.
For the variant G14C C45G, the self-cleavage was determined as 0.468.
Regarding G14C C45U, the self-cleavage was 0.562.
For G14C C45A, the self-cleavage came to 0.406.
G14A U44G: the self-cleavage is 0.64.
Then G14A U44A, with 0.538; and G14A U44C, with 0.363; and G14C G41A, with 0.16.
On to G14C G41C, for which the self-cleavage was 0.192.
Regarding G14C G41U, the self-cleavage stood at 0.231.
For the variant G14U A40G, the self-cleavage was 0.425.
The result for G14U A40U reads 0.179.
In the case of G14A G65C, the self-cleavage amounted to 0.311.
In the case of G14A G65U, the self-cleavage is 0.3.
For the variant G14U A16U, the self-cleavage was found to be 0.363.
Then G14U A16C, with 0.123.
As to G14C C18G, the self-cleavage was 0.101.
With G14C C32G, the self-cleavage amounted to 0.193.
Regarding G14C C32A, the self-cleavage came out at 0.25.
The result for G14C G68A reads 0.704.
With G14C G68U, the self-cleavage is 0.64.
In the case of G14C G68C, the self-cleavage was 0.607.
Regarding G14A G58A, the self-cleavage was 0.703.
Take G14A G58C: the self-cleavage is 0.674.
The result for G14A G58U reads 0.895.
As to G14C G56U, the self-cleavage came to 0.236.
Take G14C G56C: the self-cleavage is 0.24.
Take G14C U53G: the self-cleavage turned out to be 0.397.
For G14C G30A, the self-cleavage was determined as 0.255.
In the case of G14C C54G, the self-cleavage was determined as 0.251.
As to G14C C54U, the self-cleavage stood at 0.544.
Turning to G14C C22G, the self-cleavage was found to be 0.122.
With G14C C22U, the self-cleavage turned out to be 0.0705.
Turning to G14C C22A, the self-cleavage is 0.142.
For G14C U36G, the self-cleavage worked out at 0.19.
For the variant G14C U36C, the self-cleavage was found to be 0.37.
Take G14C U36A: the self-cleavage was found to be 0.109.
On to G14C G31U, for which the self-cleavage is 0.179.
As to G14C G31C, the self-cleavage stood at 0.167.
Take G14C G31A: the self-cleavage was found to be 0.228.
Consider G14C C33G, for which the self-cleavage turned out to be 0.293.
Then G14C C33U, with 0.636; and G14C C33A, with 0.413; and G14C C39U, with 0.286.
G14C C39G: the self-cleavage is 0.248.
The result for G14C C39A reads 0.225; that for G14C A15C, 0.166; that for G14C C35G, 0.191.
Then G14C C35U, with 0.464.
For the variant G14A G56U, the self-cleavage was 0.321.
For the variant G14A G56C, the self-cleavage came out at 0.261.
As for G14C A16C, the self-cleavage came to 0.143.
For the variant G14C A16G, the self-cleavage is 0.353.
As to G14C A16U, the self-cleavage turned out to be 0.28.
For G14U A23U, the self-cleavage was 0.986.
The result for G14U A23C reads 0.7; that for G14U A23G, 0.452; that for G14A U46G, 0.844.
In the case of G14A U46C, the self-cleavage amounted to 0.709.
As for G14C G65C, the self-cleavage came to 0.231.
In the case of G14C G65A, the self-cleavage stood at 0.291.
Turning to G14C U49G, the self-cleavage was 0.689.
G14C U49A: the self-cleavage was determined as 0.712.
Consider G14A U64G, for which the self-cleavage is 0.576.
For the variant G14A U64C, the self-cleavage was 0.346.
Turning to G14A U26A, the self-cleavage was 0.346.
Consider G14C U21C, for which the self-cleavage turned out to be 0.286.
Turning to G14C U21A, the self-cleavage amounted to 0.477.
With G14C U21G, the self-cleavage stood at 0.11.
The result for G14C A42G reads 0.266; that for G14C A42U, 0.228.
G14C A42C: the self-cleavage was 0.331.
With G14A U43G, the self-cleavage amounted to 0.23.
For G14A U43C, the self-cleavage was 0.624.
Regarding G14A U43A, the self-cleavage is 0.306.
On to G14A U20G, for which the self-cleavage turned out to be 0.124.
The result for G14A U20A reads 0.132; that for G14C U46C, 0.48; that for G14C U46G, 0.599.
Turning to G14C U46A, the self-cleavage stood at 0.651.
Turning to G14C A52G, the self-cleavage was found to be 0.57.
Take G14U A42C: the self-cleavage amounted to 0.523.
For the variant G14U A42U, the self-cleavage was determined as 0.425.
The result for G14C G19A reads 0.136.
Turning to G14A U61A, the self-cleavage worked out at 0.357.
As to G14C U26C, the self-cleavage turned out to be 0.327.
G14C U26G: the self-cleavage is 0.256.
For G14C G25C, the self-cleavage worked out at 0.167.
Turning to G14C G25A, the self-cleavage was 0.142.
G14C G25U: the self-cleavage amounted to 0.0786.
As to G14C U64C, the self-cleavage stood at 0.283.
With G14C U64G, the self-cleavage came out at 0.546.
Consider G14C U64A, for which the self-cleavage turned out to be 0.432.
Turning to G14C G50U, the self-cleavage turned out to be 0.618.
Turning to G14C G50C, the self-cleavage amounted to 0.405.
Regarding G14C G50A, the self-cleavage came out at 0.613.
Regarding G14C G47A, the self-cleavage is 0.729.
For the variant G14C G47U, the self-cleavage was determined as 0.725.
Consider G14C U61G, for which the self-cleavage came out at 0.266.
Then G14C U61A, with 0.346; and G14C U62C, with 0.352; and G14C U62A, with 0.394.
G14C U62G: the self-cleavage amounted to 0.368.
Take G14C U69G: the self-cleavage is 0.726.
With G14C U69C, the self-cleavage amounted to 0.968.
Regarding G14A U38A, the self-cleavage was 0.478.
For G14C U20C, the self-cleavage was determined as 0.116.
As to G14C U20A, the self-cleavage was determined as 0.102.
The result for G14C G17C reads 0.119; that for G14C G17A, 0.164.
In the case of G14C U55A, the self-cleavage stood at 0.22.
As for G14C U55C, the self-cleavage is 0.271.
As to G14C C27G, the self-cleavage stood at 0.159.
Consider G14C C27A, for which the self-cleavage came to 0.146.
For the variant G14C C27U, the self-cleavage was 0.14.
Consider G14C U38G, for which the self-cleavage stood at 0.157.
The result for G14C C29U reads 0.163; that for G14C C29A, 0.0734.
For G14C C29G, the self-cleavage worked out at 0.172.
Then G14A U36C, with 0.442; and G14A U36A, with 0.0973.
For the variant G14C A40C, the self-cleavage came out at 0.183.
With G14C A40G, the self-cleavage was determined as 0.324.
For G14C G28C, the self-cleavage was determined as 0.154.
Take G14C G28A: the self-cleavage turned out to be 0.154.
Consider G14C G28U, for which the self-cleavage stood at 0.148.
For G14C A51G, the self-cleavage stood at 0.666.
Consider G14C A51C, for which the self-cleavage stood at 0.337.
Regarding G14C C24U, the self-cleavage was found to be 0.175.
Regarding G14C C63U, the self-cleavage is 0.862.
As for G14C C63A, the self-cleavage was determined as 0.928.
